{"source": "patent US20210246166A1", "about": "(Bayer, published 2021)", "binders": {"B1": {"name": "(Dab)-IC+SRS-((tBu)A)-PPI-(Pen)+IP-NH2 (peptide)", "peptide": "[Dab]ICSRS[tBuAla]PPI[Pen]IP-NH2", "modifications": "disulfide 3-11; N-terminus assumed", "SMILES": "CC[C@H](C)[C@H](NC(=O)[C@@H](N)CCN)C(=O)N[C@H]1CSSC(C)(C)[C@@H](C(=O)N[C@H](C(=O)N2CCC[C@H]2C(N)=O)[C@@H](C)CC)NC(=O)[C@H]([C@@H](C)CC)NC(=O)[C@@H]2CCCN2C(=O)[C@@H]2CCCN2C(=O)[C@H](CC(C)(C)C)NC(=O)[C@H](CO)NC(=O)[C@H](CCCNC(=N)N)NC(=O)[C@H](CO)NC1=O"}, "B2": {"name": "((N-Me)G)-IC+SRSLP-(Oic)-I-(Pen)+I-((5-Azaspiro[2.4]heptane-1-carboxylic acid)-OH (peptide)", "peptide": "[Sar]ICSRSLP[Oic]I[Pen]I[5‑Azaspiro(2.4)heptane‑1‑carboxylic acid]-OH", "modifications": "disulfide 3-11"}, "B3": {"name": "((N-Me)G)-IC+SRSLP-(Oic)-I-(Pen)+IPD-NH2 (peptide)", "peptide": "[Sar]ICSRSLP[Oic]I[Pen]IPD-NH2", "modifications": "disulfide 3-11; N-terminus assumed", "SMILES": "CC[C@H](C)[C@H](NC(=O)CNC)C(=O)N[C@H]1CSSC(C)(C)[C@@H](C(=O)N[C@H](C(=O)N2CCC[C@H]2C(=O)N[C@@H](CC(=O)O)C(N)=O)[C@@H](C)CC)NC(=O)[C@H]([C@@H](C)CC)NC(=O)[C@@H]2C[C@@H]3CCCC[C@@H]3N2C(=O)[C@@H]2CCCN2C(=O)[C@H](CC(C)C)NC(=O)[C@H](CO)NC(=O)[C@H](CCCNC(=N)N)NC(=O)[C@H](CO)NC1=O"}, "B4": {"name": "((N-Me)G)-IC+SRSLP-(Oic)-I-(Pen)+IP-OH (peptide)", "peptide": "[Sar]ICSRSLP[Oic]I[Pen]IP-OH", "modifications": "disulfide 3-11; N-terminus assumed", "SMILES": "CC[C@H](C)[C@H](NC(=O)CNC)C(=O)N[C@H]1CSSC(C)(C)[C@@H](C(=O)N[C@H](C(=O)N2CCC[C@H]2C(=O)O)[C@@H](C)CC)NC(=O)[C@H]([C@@H](C)CC)NC(=O)[C@@H]2C[C@@H]3CCCC[C@@H]3N2C(=O)[C@@H]2CCCN2C(=O)[C@H](CC(C)C)NC(=O)[C@H](CO)NC(=O)[C@H](CCCNC(=N)N)NC(=O)[C@H](CO)NC1=O"}, "B5": {"name": "(Abu)-IC+SRSLPP-(Chg)-C+IPD-NH2 (peptide)", "peptide": "[Abu]ICSRSLPP[Chg]CIPD-NH2", "modifications": "disulfide 3-11; N-terminus assumed", "SMILES": "CC[C@H](N)C(=O)N[C@H](C(=O)N[C@H]1CSSC[C@@H](C(=O)N[C@H](C(=O)N2CCC[C@H]2C(=O)N[C@@H](CC(=O)O)C(N)=O)[C@@H](C)CC)NC(=O)[C@H](C2CCCCC2)NC(=O)[C@@H]2CCCN2C(=O)[C@@H]2CCCN2C(=O)[C@H](CC(C)C)NC(=O)[C@H](CO)NC(=O)[C@H](CCCNC(=N)N)NC(=O)[C@H](CO)NC1=O)[C@@H](C)CC"}, "B6": {"name": "AIC+SRSLPPI-(Pen)+IPD-NH2 (peptide)", "peptide": "AICSRSLPPI[Pen]IPD-NH2", "modifications": "disulfide 3-11; N-terminus assumed", "SMILES": "CC[C@H](C)[C@H](NC(=O)[C@H](C)N)C(=O)N[C@H]1CSSC(C)(C)[C@@H](C(=O)N[C@H](C(=O)N2CCC[C@H]2C(=O)N[C@@H](CC(=O)O)C(N)=O)[C@@H](C)CC)NC(=O)[C@H]([C@@H](C)CC)NC(=O)[C@@H]2CCCN2C(=O)[C@@H]2CCCN2C(=O)[C@H](CC(C)C)NC(=O)[C@H](CO)NC(=O)[C@H](CCCNC(=N)N)NC(=O)[C@H](CO)NC1=O"}, "B7": {"name": "AIC+SRS-((tBu)A)-PPI-(Pen)+IP-(Tranexamic)-NH2 (peptide)", "peptide": "AICSRS[tBuAla]PPI[Pen]IP[Tranexamic]-NH2", "modifications": "disulfide 3-11"}}, "key": {"[1]": {"target": "Recombinant human MASP2 enzyme (fragment corresponding to amino acids 297-686, C-terminal His Tag) (human, UniProt O00187 297-686)", "sequence (O00187 other isoform, or with tags, fused parts or gaps limits assumed)": "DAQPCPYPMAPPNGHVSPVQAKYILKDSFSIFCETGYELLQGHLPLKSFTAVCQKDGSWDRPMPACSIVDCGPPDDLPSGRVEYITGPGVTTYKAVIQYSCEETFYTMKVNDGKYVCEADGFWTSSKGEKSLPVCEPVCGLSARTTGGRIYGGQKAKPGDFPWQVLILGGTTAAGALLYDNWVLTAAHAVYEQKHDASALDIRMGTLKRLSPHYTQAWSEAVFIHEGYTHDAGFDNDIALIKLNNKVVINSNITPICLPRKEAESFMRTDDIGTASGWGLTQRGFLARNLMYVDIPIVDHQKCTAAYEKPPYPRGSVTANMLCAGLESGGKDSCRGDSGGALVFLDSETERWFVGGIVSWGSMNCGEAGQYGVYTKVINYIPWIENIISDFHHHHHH", "assay": "cell-based or functional assay"}, "[2]": {"target": "T1, Recombinant human MASP1 enzyme (fragment corresponding to amino acids 297-699, C-terminal His Tag) (human, UniProt P48740 297-699)", "T1 sequence": "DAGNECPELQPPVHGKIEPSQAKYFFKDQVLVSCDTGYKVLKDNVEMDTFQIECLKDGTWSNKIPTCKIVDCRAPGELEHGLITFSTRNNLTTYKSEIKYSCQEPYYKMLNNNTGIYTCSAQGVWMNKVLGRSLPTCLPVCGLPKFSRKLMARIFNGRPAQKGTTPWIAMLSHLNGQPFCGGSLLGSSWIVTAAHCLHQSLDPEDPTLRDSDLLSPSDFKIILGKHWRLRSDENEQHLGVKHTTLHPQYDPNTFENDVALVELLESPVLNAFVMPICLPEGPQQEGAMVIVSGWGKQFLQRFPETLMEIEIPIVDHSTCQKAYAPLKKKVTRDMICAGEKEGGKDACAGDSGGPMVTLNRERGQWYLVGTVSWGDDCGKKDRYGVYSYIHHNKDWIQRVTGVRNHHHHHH", "assay": "cell-based or functional assay"}}, "note": "Bridge positions count the residues as written; N and C are the ends. Square brackets hold non-standard residues; d marks the D form. Ends that are not written are not given here. Oic = O=C(O)[C@@H]1C[C@@H]2CCCC[C@@H]2N1; tBuAla = CC(C)(C)C[C@H](N)C(=O)O; Chg = N[C@H](C(=O)O)C1CCCCC1; Pen = CC(C)(S)[C@H](N)C(=O)O; Tranexamic = tranexamic acid; Dab = NCC[C@H](N)C(=O)O; Abu = CC[C@H](N)C(=O)O; Sar = CNCC(=O)O", "data": [{"binder": "B1", "values": [{"measurement": "human MASP2 IC50", "setting": "[1]", "result": 64, "unit": "nM"}, {"measurement": "human MASP1 IC50", "setting": "[2]", "result": 4, "unit": "nM"}]}, {"binder": "B2", "values": [{"measurement": "human MASP2 IC50", "setting": "[1]", "result": 57, "unit": "nM"}, {"measurement": "human MASP1 IC50", "setting": "[2]", "result": 4, "unit": "nM"}]}, {"binder": "B3", "values": [{"measurement": "human MASP2 IC50", "setting": "[1]", "result": 150, "unit": "nM"}, {"measurement": "human MASP1 IC50", "setting": "[2]", "result": 4.05, "unit": "nM"}]}, {"binder": "B4", "values": [{"measurement": "human MASP2 IC50", "setting": "[1]", "result": 230, "unit": "nM"}, {"measurement": "human MASP1 IC50", "setting": "[2]", "result": 4.2, "unit": "nM"}]}, {"binder": "B5", "values": [{"measurement": "human MASP2 IC50", "setting": "[1]", "result": 52, "unit": "nM"}, {"measurement": "human MASP1 IC50", "setting": "[2]", "result": 4.25, "unit": "nM"}]}, {"binder": "B6", "values": [{"measurement": "human MASP2 IC50", "setting": "[1]", "result": 68, "unit": "nM"}, {"measurement": "human MASP1 IC50", "setting": "[2]", "result": 4.3, "unit": "nM"}]}, {"binder": "B7", "values": [{"measurement": "human MASP2 IC50", "setting": "[1]", "result": 30, "unit": "nM"}, {"measurement": "human MASP1 IC50", "setting": "[2]", "result": 4.3, "unit": "nM"}]}]}
